Data on 1 molecule can be found in paper PMC3510514 (Nucleic Acids Research, 2012).

This test has as its target T1, GST-ubiquitin (human, UniProt P0CG48 1-76).
T1 construct: ubiquitin, the cut product of the polyubiquitin precursor; also called GST-tagged ubiquitin; source: purified
The test is described as follows: pull-down; GST-ubiquitin (3 μg) on glutathione-sepharose beads, FLAG-Spartan (1 μg) in solution; 4 h at 4°C, buffer I (40 mM Tris HCl pH 7.5, 85 mM NaCl, 0.1 mM DTT, 10% glycerol, 0.01% NP40); immunoblot with anti-FLAG and anti-GST. The settings on record: both partners purified. On the technique in general: In western blotting, separated proteins are transferred to a membrane and probed.

B1: FLAG-Spartan PIP mutant YF331,332AA (natural protein, human, UniProt Q9H040 1-489, looked up)
chain: MDDDLMLALRLQEEWNLQEAERDHAQESLSLVDASWELVDPTPDLQALFVQFNDQFFWGQLEAVEVKWSVRMTLCAGICSYEGKGGMCSIRLSEPLLKLRPRKDLVETLLHEMIHAYLFVTNNDKDREGHGPEFCKHMHRINSLTGANITVYHTFHDEVDEYRRHWWRCNGPCQHRPPYYGYVKRATNREPSAHDYWWAEHQKTCGGTYIKIKEPENYSKKGKGKAKLGKEPVLAAENKDKPNRGEAQLVIPFSGKGYVLGETSNLPSPGKLITSHAINKTQDLLNQNHSANAVRPNSKIKVKFEQNGSSKNSHLVSPAVSNSHQNVLSNAAPRVSFANQKAFRGVNGSPRISVTVGNIPKNSVSSSSQRRVSSSKISLRNSSKVTESASVMPSQDVSGSEDTFPNKRPRLEDKTVFDNFFIKKEQIKSSGNDPKYSTTTAQNSSSSSSQSKMVNCPVCQNEVLESQINEHLDWCLEGDSIKVKSEESL
notes: Spartan/C1orf124, human; cDNA clone bought from ImaGenes; also called PIP mutant Spartan; YF331,332AA Spartan; source: S. cerevisiae BJ5464, purified (glutathione-Sepharose, eluted by PreScission protease); not shown: GST, N-terminal, cleaved; FLAG, N-terminal, kept
Consider B1, for which the binding result is recorded as “binds”.
